This is an account of results in patent US20220403031A1.

Usually Kd stands for the constant that tells how readily two partners part at equilibrium. What is called EC50 is the midpoint of the concentration-response curve. In general, IC50 refers to the concentration needed to halve the response being measured.

In experiment [1] the target is cynomolgus monkey PD-L1 on 293F cells (W315-293F.cynoPro1.2A2) (cynomolgus monkey) (UniProt G7PSE7). As to the kind of experiment: FACS affinity on cynomolgus PD-L1 cells, quantitative beads. The arrangement: Bmax: unit not given here.
Chain of cynomolgus monkey PD-L1 on 293F cells (W315-293F.cynoPro1.2A2) (cynomolgus monkey) (G7PSE7 entry or part of it): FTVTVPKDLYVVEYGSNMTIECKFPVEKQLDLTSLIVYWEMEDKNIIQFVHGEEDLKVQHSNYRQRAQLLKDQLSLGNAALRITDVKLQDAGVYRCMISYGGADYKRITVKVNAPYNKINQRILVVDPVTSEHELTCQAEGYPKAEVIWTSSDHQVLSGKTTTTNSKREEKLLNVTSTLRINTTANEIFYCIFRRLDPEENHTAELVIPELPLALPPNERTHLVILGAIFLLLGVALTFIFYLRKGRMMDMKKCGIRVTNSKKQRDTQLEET
For experiment [2] the target is unchanged. Briefly: FACS on cynomolgus PD-L1 293F cells.
In experiment [3] the target is mouse PD-L1 on 293F cells (W315-293F.mPro1.C1) (mouse) (UniProt Q9EP73). As to the kind of experiment: FACS competition: antibody titrated against 5 ug/mL mouse PD-1 ECD mFc on mouse PD-L1 293F cells.
Chain of mouse PD-L1 on 293F cells (W315-293F.mPro1.C1) (mouse) (Q9EP73 19-290): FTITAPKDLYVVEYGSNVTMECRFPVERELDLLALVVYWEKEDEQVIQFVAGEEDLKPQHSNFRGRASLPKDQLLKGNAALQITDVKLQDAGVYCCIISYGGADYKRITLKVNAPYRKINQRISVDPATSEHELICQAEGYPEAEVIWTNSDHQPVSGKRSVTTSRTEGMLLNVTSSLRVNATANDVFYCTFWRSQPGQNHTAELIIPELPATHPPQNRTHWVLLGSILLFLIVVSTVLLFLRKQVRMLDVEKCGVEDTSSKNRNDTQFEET
Experiment [4] has as its target human PD-L1 on CHO-K1 cells (W315-CHO-K1.hPro1.C11) (human) (UniProt Q9NZQ7). Briefly: FACS affinity on human PD-L1 cells, quantitative beads.
For experiment [5], the target named is mouse PD-L1 on 293F cells (W315-293F.mPro1.C1) (mouse) (UniProt Q9EP73). As to the kind of experiment: FACS on mouse PD-L1 293F cells.
Experiment [6] shares this target. As to the kind of experiment: FACS affinity on mouse PD-L1 cells, quantitative beads.
The target in experiment [7] is human PD-L1 on CHO-K1 cells (W315-CHO-K1.hPro1.C11) (human) (UniProt Q9NZQ7). Briefly: FACS competition: antibody titrated against 5 ug/mL human PD-1 ECD mFc on human PD-L1 CHO-K1 cells.
Chain of human PD-L1 on CHO-K1 cells (W315-CHO-K1.hPro1.C11) (human) (Q9NZQ7 19-290): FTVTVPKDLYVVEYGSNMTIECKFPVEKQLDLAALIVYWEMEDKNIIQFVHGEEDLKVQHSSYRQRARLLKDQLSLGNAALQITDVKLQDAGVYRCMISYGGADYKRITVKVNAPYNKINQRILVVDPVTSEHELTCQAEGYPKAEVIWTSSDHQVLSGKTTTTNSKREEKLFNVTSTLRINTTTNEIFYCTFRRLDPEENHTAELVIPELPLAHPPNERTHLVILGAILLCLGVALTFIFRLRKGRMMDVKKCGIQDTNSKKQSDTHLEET
Experiment [8] shares this target. Briefly: FACS on human PD-L1 CHO-K1 cells.
In experiment [9] the target is Factor VIII. As to the kind of experiment: non-specific binding ELISA; secondary antibody alone on coated antigen. A general note: ELISA stands for enzyme-linked immunosorbent assay.
Experiment [10] deals with CTLA4.his. The description is as above.
Chain of CTLA4.his (P16410 36-161): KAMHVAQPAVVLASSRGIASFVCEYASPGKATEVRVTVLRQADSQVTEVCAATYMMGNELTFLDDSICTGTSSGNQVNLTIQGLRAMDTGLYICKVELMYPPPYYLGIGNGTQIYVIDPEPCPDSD
Experiment [11] deals with FGFR.his. The experiment is described as above.
Experiment [12] addresses human serum Albumin (human) (UniProt P02768). The description is as above.
The target in experiment [13] is OX40.his. The description is as above.
Chain of OX40.his (P43489 29-214): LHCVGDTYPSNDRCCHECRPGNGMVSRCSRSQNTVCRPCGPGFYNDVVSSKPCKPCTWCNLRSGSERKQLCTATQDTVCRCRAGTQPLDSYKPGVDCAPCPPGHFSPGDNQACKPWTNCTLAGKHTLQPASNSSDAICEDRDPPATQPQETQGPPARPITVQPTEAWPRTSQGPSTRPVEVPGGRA
The target of experiment [14] is 4-1BB.his (Homo sapiens (Human)) (UniProt Q07011). Described as above.
Chain of 4-1BB.his (Homo sapiens (Human)) (Q07011 24-186 limits assumed): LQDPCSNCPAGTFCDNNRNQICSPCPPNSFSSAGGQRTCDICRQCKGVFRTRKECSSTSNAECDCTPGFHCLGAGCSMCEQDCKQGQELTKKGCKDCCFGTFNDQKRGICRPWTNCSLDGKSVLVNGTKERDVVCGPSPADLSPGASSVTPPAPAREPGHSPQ
Experiment [15] addresses CD3.his. The experiment is described as above.
Experiment [16] deals with CD147.his. The description is as above.
Experiment [17] has as its target PD-1.his (Homo sapiens (Human)) (UniProt Q15116). The description is as above.
The target in experiment [18] is VEGF.his. The description is as above.
For experiment [19], the target named is CD40. The experiment is described as above.
Chain of CD40 (P25942 21-193): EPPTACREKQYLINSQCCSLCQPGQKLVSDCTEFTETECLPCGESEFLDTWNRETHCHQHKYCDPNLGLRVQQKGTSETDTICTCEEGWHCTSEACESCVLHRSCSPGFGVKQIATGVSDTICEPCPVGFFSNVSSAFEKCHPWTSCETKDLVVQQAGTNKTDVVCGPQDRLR
The target of experiment [20] is HER3.his (Homo sapiens (Human)) (UniProt P21860). Described as above.
Experiment [21] has as its target CD22.his. The description is as above.
Experiment [22] addresses Factor VIII. As to the kind of experiment: non-specific binding ELISA; antigen coated at 2 ug/mL, antibody at 10 ug/ml.
In experiment [23] the target is CTLA4.his. Described as above.
Experiment [24] deals with FGFR.his. The experiment is described as above.
Experiment [25] has as its target human serum Albumin (human) (UniProt P02768). Described as above.
Experiment [26] has as its target OX40.his. The experiment is described as above.
Experiment [27] deals with 4-1BB.his (Homo sapiens (Human)) (UniProt Q07011). Described as above.
For experiment [28], the target named is CD3.his. The description is as above.
Experiment [29] addresses CD147.his. Described as above.
The target in experiment [30] is PD-1.his (Homo sapiens (Human)) (UniProt Q15116). The experiment is described as above.
Chain of PD-1.his (Homo sapiens (Human)) (Q15116 25-170 limits assumed): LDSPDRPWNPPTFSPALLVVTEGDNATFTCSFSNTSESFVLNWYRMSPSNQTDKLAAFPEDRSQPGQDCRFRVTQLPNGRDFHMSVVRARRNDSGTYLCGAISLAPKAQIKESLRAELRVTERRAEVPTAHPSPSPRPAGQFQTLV
The target in experiment [31] is VEGF.his. The description is as above.
The target in experiment [32] is CD40. The experiment is described as above.
Experiment [33] concerns the target HER3.his (Homo sapiens (Human)) (UniProt P21860). Described as above.
Experiment [34] has as its target CD22.his. The experiment is described as above.

As to “BMK6.hIgG4 (Benchmark antibody 6, variable region of Imfinzi conjugated with human IgG4 constant region)”, in [1], the Bmax turned out to be 1.6e-08 and the Kd turned out to be 21 nM. In [2], this substance showed an EC50 of 2.65 nM.
With “BMK8.hIgG4 (Benchmark antibody 8, variable region of Tecentriq conjugated with human IgG4 constant region)”, the Bmax in experiment [1] came out at 8.8e-09; in experiment [4], 3.3e-10; in experiment [6] it was 8.3e-10. The Kd in experiment [1] was found to be 16 nM; in experiment [4] it was 0.53 nM; in experiment [6] it was 1.7 nM. Moreover, the IC50 in experiment [3] was 1.45 nM. Moreover, the EC50 is 1.48 nM in experiment [5] and 2.19 nM in experiment [2].
For the substance “BMK9.Fc(IgG1) (Benchmark antibody 9, same sequence with KN035) (Fc fusion)”, the IC50 in experiment [7] came to 0.798 nM. The EC50 in experiment [2] came to 2.33 nM; in [8], 0.456 nM.
For the substance “Goat anti-human IgG Fc-HRP (Bethyl, A80-304P) (antibody)”, the Absorbance at 450 nm with Factor VIII [9] was 0.06; with CTLA4.his [10], 0.05; in the experiment with FGFR.his [11], 0.13; in experiment [12], 0.37; with OX40.his [13] it was 0.05; in experiment [14], 0.05. The Absorbance at 450 nm in the experiment with CD3.his [15] was 0.05; in the experiment with CD147.his [16], 0.05; in experiment [17], 0.05; with VEGF.his [18], 0.06; with CD40 [19] it was 0.24; in [20], 0.05. Moreover, in the experiment with CD22.his [21], the Absorbance at 450 nm was 0.05.
For the substance hIgG4K Isotype control (antibody), the Absorbance at 450 nm in the experiment with Factor VIII [22] turned out to be 0.15; in the experiment with CTLA4.his [23], 0.09; with FGFR.his [24] it was 0.13; in experiment [25], 0.41; with OX40.his [26] it was 0.06; in experiment [27] it was 0.07. Besides, the Absorbance at 450 nm was determined as 0.07 with CD3.his [28]; 0.06 with CD147.his [29]; 3.29 in experiment [30]; 0.11 with VEGF.his [31]; 0.25 in the experiment with CD40 [32]; 0.07 in experiment [33]. In the experiment with CD22.his [34], this substance came in with an Absorbance at 450 nm of 0.06.
Consider hIgG4L Isotype control (antibody), for which the Absorbance at 450 nm with Factor VIII [22] is 0.07; with CTLA4.his [23], 0.06; with FGFR.his [24], 0.13; in experiment [25] it was 0.41; with OX40.his [26] it was 0.06; in experiment [27] it was 0.06. For the same substance, the Absorbance at 450 nm with CD3.his [28] turned out to be 0.07; in the experiment with CD147.his [29] it was 0.06; in [30] it was 0.05; with VEGF.his [31], 0.08; with CD40 [32] it was 0.24; in experiment [33], 0.06. The substance further came in with an Absorbance at 450 nm with CD22.his [34] of 0.06.
